Experimental data as given in US20220073631A1 (QYUNS THERAPEUTICS, published 2022).

Experiments:
[1] = biological target: T1, hIL-4Rα-ECD (wild-type hIL-4Rα extracellular domain with C-terminus his-tag) (human, UniProt P24394 26-232); experiment: SPR, Biacore T200, by the methods of Example 2; mean of three experiments
T1 construct: Made in HEK 293F cells and purified on nickel; not shown: C-terminal his-tag
Procedure: (§1) The protein A was chemically coupled to a CM5 chip, and an appropriate amount of the antibody was immobilized by a capture method such that the Rmax was less than 50 RU and the flow rate for the capture was 10 μl/min. The antigen was subject to gradient dilution, and the flow rate in the instrument was switched to 30 μl/min. The antigen was flowed through the reference channel and the channel with the immobilized antibody sequentially in an ascending order of concentration, and the running buffer was flowed through as a negative control. After each binding and dissociation was complete, the chip was regenerated with glycine, pH 1.5. Fitting was performed with the build-in software in the instrument according to a 1:1 binding model. The binding rate constant kₐ, the dissociation rate constant kd, and the equilibrium dissociation constant KD values of the antibody were calculated. Dupilumab was obtained by purchasing a commercially available medicine.
(§2) To further narrow down the key amino acids that PD2-31 binds to, multiple mutants of hIL-4Rα were designed in Loop 2 (V40FLLSEA46) and Loop 3 (M65[…]73) (Table 2). The wild-type hIL-4Rα (hIL-4Rα-ECD) and hIL-4Rα mutants were prepared using standard techniques. Briefly, the expression plasmids containing the extracellular domain of wild-type hIL-4Rα and different mutated hIL-4Rα were constructed and transfected into HEK 293F cells. After expression, the extracellular domain of wild-type hIL-4Rα and hIL-4Rα mutants with C-terminus his-tag were purified by Nickel chromatography. Purified proteins of wild-type hIL-4Rα and hIL-4Rα mutants were analyzed for interaction with PD2-31 and Dupilumab. The interaction was studied by Biacore T200, according to the methods in Example 2.

[2] = biological target: T2, human IL-4Rα (Shanghai Novoprotein Technology Co., Ltd) (human, UniProt P24394 26-232); experiment: SPR, Biacore T200, antibody captured on protein A, antigen as analyte, 25 C, 1:1 model
T2 construct: Bought protein; also called hIL-4Rα; human interleukin-4 receptor alpha
Procedure: as §1

[3] = biological target: IL-4Rα on human cells (HEK Blue IL-4/IL-13, A549, TF-1, HFL-1, PBMCs) (human, UniProt P24394 26-825); experiment: cell-based or functional assay
hIL-4Rα-Mu453 = biological target: T3, hIL-4Rα-Mu453 (human, UniProt P24394 26-232); experiment: SPR, Biacore T200, by the methods of Example 2
T3 construct: Printed positions fit the mature protein; also called D66A/D67A; not shown: C-terminal his-tag
Procedure: as §1, §2

hIL-4Rα-Mu244 = biological target: T4, hIL-4Rα-Mu244 (human, UniProt P24394 26-232); experiment: SPR, Biacore T200, by the methods of Example 2
T4 construct: Printed positions fit the mature protein; also called S70Q/A71L/D72R; not shown: C-terminal his-tag
T4 chain: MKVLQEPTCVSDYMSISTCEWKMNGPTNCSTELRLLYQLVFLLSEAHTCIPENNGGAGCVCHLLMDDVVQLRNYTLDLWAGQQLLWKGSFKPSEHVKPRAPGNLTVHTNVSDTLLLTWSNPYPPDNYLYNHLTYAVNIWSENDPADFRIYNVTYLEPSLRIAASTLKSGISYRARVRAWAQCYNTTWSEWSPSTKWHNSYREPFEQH
Procedure: as §1, §2

hIL-4Rα-Mu245 = biological target: T5, hIL-4Rα-Mu245 (human, UniProt P24394 26-232); experiment: SPR, Biacore T200, by the methods of Example 2
T5 construct: Printed positions fit the mature protein; also called A71L/D72R/N73A; not shown: C-terminal his-tag
T5 chain: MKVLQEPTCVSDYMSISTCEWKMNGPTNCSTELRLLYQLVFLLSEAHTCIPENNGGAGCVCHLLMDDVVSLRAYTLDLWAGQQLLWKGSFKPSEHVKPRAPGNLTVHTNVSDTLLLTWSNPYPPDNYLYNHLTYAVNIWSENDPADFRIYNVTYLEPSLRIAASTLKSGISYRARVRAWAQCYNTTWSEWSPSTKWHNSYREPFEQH
Procedure: as §1, §2

hIL-4Rα-Mu239 = biological target: T6, hIL-4Rα-Mu239 (human, UniProt P24394 26-232); experiment: SPR, Biacore T200, by the methods of Example 2
T6 construct: Printed positions fit the mature protein; also called M65I/D66A/D67A; not shown: C-terminal his-tag
T6 chain: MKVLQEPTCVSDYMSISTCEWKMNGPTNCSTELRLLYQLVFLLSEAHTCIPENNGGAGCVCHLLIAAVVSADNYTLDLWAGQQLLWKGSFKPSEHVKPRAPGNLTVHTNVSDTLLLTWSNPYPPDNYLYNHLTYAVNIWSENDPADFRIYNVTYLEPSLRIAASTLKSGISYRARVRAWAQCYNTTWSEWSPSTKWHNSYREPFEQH
Procedure: as §1, §2

hIL-4Rα-Mu242 = biological target: T7, hIL-4Rα-Mu242 (human, UniProt P24394 26-232); experiment: SPR, Biacore T200, by the methods of Example 2
T7 construct: Printed positions fit the mature protein; also called V68R/V69F/S70Q; not shown: C-terminal his-tag
T7 chain: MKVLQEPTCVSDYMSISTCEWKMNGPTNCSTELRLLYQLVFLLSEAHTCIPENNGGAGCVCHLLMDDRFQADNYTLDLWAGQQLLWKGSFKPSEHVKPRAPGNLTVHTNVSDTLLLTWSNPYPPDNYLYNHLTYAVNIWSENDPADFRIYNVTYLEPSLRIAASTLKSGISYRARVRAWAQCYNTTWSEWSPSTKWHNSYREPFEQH
Procedure: as §1, §2

[4] = biological target: T8, extracellular domain of marmoset IL-4Rα (Gly 24-His 232) with C-terminus his-tag (marmoset); experiment: SPR, Biacore T200, by the methods of Example 2
T8 construct: range 24-232; Made in HEK 293F cells and purified on nickel

B1: QX005N (PD2-31) (antibody, V domains shown)
VH: EVQLVESGGGLVQPGGSLRLSCAASGIDLRTNSMSWVRQAPGKGLEWVGIIGSSGYMDYASWAKGRFTISRDNSKNTLYLQMNSLRAEDTAVYYCARHGDSSSFALWGQGTLVTVSS
VL: DIQMTQSPSSLSASVGDRVTITCRASESVYKNNRLSWYQQKPGKAPKLLIYEASKVASGVPSRFSGSGSGTDFTLTISSLQPEDFATYYCAGAYRGNIYPFGQGTKVEIK
notes: Humanized from rabbit clone #2, expressed as a full antibody in ExpiCHO-S cells (heavy chain 48.5 kDa, light chain 23.7 kDa)
- Kd [1]: 0.169 nM
- koff [1]: 0.000134 s⁻¹
- kon [1]: 779000 M⁻¹ s⁻¹
- Kd [2]: 0.378 nM
- koff [2]: 0.000236 s⁻¹
- kon [2]: 612000 M⁻¹ s⁻¹
- IC50, IL-4-induced CCL-11 release activity in HFL-1 cells (FIG. 7(A)) [3]: 0.0431 µg/mL
- IC50, IL-4-induced CCL-17 release activity in A549 cells (FIG. 5(A)) [3]: 0.0326 µg/mL
- IC50, IL-4-induced CCL-17 release activity in PBMCs (FIG. 9(A)) [3]: 0.0248 µg/mL
- IC50, IL-4-induced STAT6 phosphorylation activity in HEK Blue IL-4/IL-13 cells (FIG. 4(A)) [3]: 0.00319 µg/mL
- IC50, IL-4-induced proliferation activity of TF-1 cells (FIG. 6(A)) [3]: 0.0139 µg/mL
- IC50, IL-13-induced CCL-11 release activity in HFL-1 cells (FIG. 7(C)) [3]: 0.0385 µg/mL
- IC50, IL-13-induced CCL-17 release activity in A549 cells (FIG. 5(C)) [3]: 0.0289 µg/mL
- IC50, IL-13-induced CCL-17 release activity in PBMCs (FIG. 9(C)) [3]: 0.0686 µg/mL
- IC50, IL-13-induced STAT6 phosphorylation activity in HEK Blue IL-4/IL-13 cells (FIG. 4(C)) [3]: 0.00878 µg/mL
- IC50, IL-13-induced proliferation activity of TF-1 cells (FIG. 6(C)) [3]: 0.0155 µg/mL
- Kd (hIL-4Rα-Mu453): 0.663 nM
- koff (hIL-4Rα-Mu453): 0.000118 s⁻¹
- kon (hIL-4Rα-Mu453): 178000 M⁻¹ s⁻¹
- Kd (hIL-4Rα-Mu244): 1.1 nM
- koff (hIL-4Rα-Mu244): 0.000104 s⁻¹
- kon (hIL-4Rα-Mu244): 94500 M⁻¹ s⁻¹
- Kd (hIL-4Rα-Mu245): 1.45 nM
- koff (hIL-4Rα-Mu245): 0.00029 s⁻¹
- kon (hIL-4Rα-Mu245): 201000 M⁻¹ s⁻¹
- Kd (hIL-4Rα-Mu239): 0.163 nM
- koff (hIL-4Rα-Mu239): 2.71e-05 s⁻¹
- kon (hIL-4Rα-Mu239): 166000 M⁻¹ s⁻¹
- Kd (hIL-4Rα-Mu242): 0.979 nM
- koff (hIL-4Rα-Mu242): 0.000138 s⁻¹
- kon (hIL-4Rα-Mu242): 141000 M⁻¹ s⁻¹
- Kd [4]: ~0.1 nM
